Measured values from US20210246451, “APTAMER FOR ADAMTS5 AND USE FOR APTAMER FOR ADAMTS5” (RIBOMIC INC., published 2021).

T1: ADAMTS5 (UniProt Q9UNA0 Q9UNA0:262-622)
T1 sequence: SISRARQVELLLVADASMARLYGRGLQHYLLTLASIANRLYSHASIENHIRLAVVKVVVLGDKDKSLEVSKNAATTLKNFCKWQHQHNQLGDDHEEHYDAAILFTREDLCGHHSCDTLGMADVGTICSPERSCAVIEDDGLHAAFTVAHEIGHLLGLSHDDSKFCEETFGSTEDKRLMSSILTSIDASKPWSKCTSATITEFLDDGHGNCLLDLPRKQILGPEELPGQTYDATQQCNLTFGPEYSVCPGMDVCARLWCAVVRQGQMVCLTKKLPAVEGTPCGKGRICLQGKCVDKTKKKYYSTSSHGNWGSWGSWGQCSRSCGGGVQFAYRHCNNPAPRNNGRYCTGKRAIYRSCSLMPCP


biological target: T1, ADAMTS5; experiment: inhibition; 10 nM; settings: tags: R&D Systems
Experimental: Whether an aptamer having the nucleotide sequence shown in SEQ ID NO: 1 inhibits the enzyme activity of ADAMTS5 was evaluated by the following method. As a substrate of ADAMTS5, the G1-IGD-G2 domain of aggrecan (manufactured by R&D systems) was used. ADAMTS5 specifically cleaves in between the 392nd glutamic acid and the 393rd alanine in the G1-IGD-G2 domain and produces two fragments. These fragments have faster electrophoretic mobility than uncleaved G1-IGD-G2. Thus, the enzyme activity of ADAMTS5 can be measured by quantifying the band intensity of G1-IGD-G2 by SDS-PAGE electrophoresis. The assay was performed in a solution A buffer with a reaction mixture volume of 10 μL. First, a mixture (10 μL) of a nucleic acid and ADAMTS5 was prepared and incubated at 25° C. for 15 min. To a substrate solution (5 μL) diluted with solution A was added a mixture (5 μL) of the nucleic acid and ADAMTS5 to start the enzyme reaction. The final concentration of ADAMTS5 in the reaction solution was 5 nM, and the final substrate concentration was 50 μg/mL. The reaction solution was incubated at 37° C. for 2 hr, 2 μL of solution D was added, and the mixture was heated at 95° C. for 2 min to stop the enzyme reaction of ADAMTS5. Solution D contains 0.25 M tris (pH 6.8), 10% SDS, 50% glycerol, 0.25% bromo phenolblue, and 20% 2-mercaptoethanol. The heat-treated reaction solution was electrophoresed by 7.5% SDS-PAGE and stained with SYPRO Orange (manufactured by Sigma-Aldrich). The staining was performed according to the manual of Sigma-Aldrich and detected using STORM840 manufactured by GE Healthcare. […] The amount of uncleaved substrate in each reaction solution was quantified from the band intensity and the standard curve. The substrate cleavage efficiency of ADAMTS5 under these reaction conditions was 80-100%. The inhibition rate of the test substance was calculated using the following equation.
The aptamers having the sequences shown in SEQ ID NOs: 10(1)-10(8) and 11(1)-11(35), SEQ ID NO: 13-15 were all produced by chemical synthesis.

Row | Binder | activity [% inhibition]
1 | AUUGGGGCCUCCACAGCUGCUCAGCUUGGACUAAACCAAU (ssRNA, as SEQ 10 plus 2'-OMe at C8) [10(1)] | 41.3
2 | AUUGGGGCCUCCACAGCUGCUCAGCUUGGACUAAACCAAU (ssRNA, as SEQ 10 plus 2'-OMe at C9) [10(2)] | 12.6
3 | AUUGGGGCCUCCACAGCUGCUCAGCUUGGACUAAACCAAU (ssRNA, as SEQ 10 plus 2'-OMe at U10) [10(3)] | 2
4 | AUUGGGGCCUCCACAGCUGCUCAGCUUGGACUAAACCAAU (ssRNA, as SEQ 10 plus 2'-OMe at C11) [10(4)] | 3.6
5 | AUUGGGGCCUCCACAGCUGCUCAGCUUGGACUAAACCAAU (ssRNA, as SEQ 10 plus 2'-OMe at C12) [10(5)] | 8.5
6 | AUUGGGGCCUCCACAGCUGCUCAGCUUGGACUAAACCAAU (ssRNA, as SEQ 10 plus 2'-OMe at U27) [10(6)] | 61.8
7 | AUUGGGGCCUCCACAGCUGCUCAGCUUGGACUAAACCAAU (ssRNA, as SEQ 10 plus 2'-OMe at C31) [10(7)] | 10.4
8 | AUUGGGGCCUCCACAGCUGCUCAGCUUGGACUAAACCAAU (ssRNA, as SEQ 10 plus 2'-OMe at U32) [10(8)] | 12.8
9 | AUUGGGGCCUCCACAGCGCUCGCUUGGACUAAACCAAU (ssRNA, 2'-OMe at 1-5,15-26,32-38; 2'-F other pyrimidines) [11(1)] | 62.8
10 | AUUGGGGCCUCCACAGCGCUCGCUUGGACUAAACCAAU (mixed, as 11(1) with dG at 6) [11(2)] | 60.6
11 | AUUGGGGCCUCCACAGCGCUCGCUUGGACUAAACCAAU (mixed, as 11(1) with dG at 7) [11(3)] | 19.5
12 | AUUGGGGCCUCCACAGCGCUCGCUUGGACUAAACCAAU (mixed, as 11(1) with dC at 8) [11(4)] | 50.9
13 | AUUGGGGCCUCCACAGCGCUCGCUUGGACUAAACCAAU (mixed, as 11(1) with dC at 9) [11(5)] | 34.2
14 | AUUGGGGCCUCCACAGCGCUCGCUUGGACUAAACCAAU (mixed, as 11(1) with dT at 10) [11(6)] | 9.2
15 | AUUGGGGCCUCCACAGCGCUCGCUUGGACUAAACCAAU (mixed, as 11(1) with dC at 11) [11(7)] | 23
16 | AUUGGGGCCUCCACAGCGCUCGCUUGGACUAAACCAAU (mixed, as 11(1) with dC at 12) [11(8)] | 43.2
17 | AUUGGGGCCUCCACAGCGCUCGCUUGGACUAAACCAAU (mixed, as 11(1) with dC at 14) [11(9)] | 60.8
18 | AUUGGGGCCUCCACAGCGCUCGCUUGGACUAAACCAAU (mixed, as 11(1) with dG at 27) [11(10)] | 59.1

Row | Binder | activity [% inhibition]
19 | AUUGGGGCCUCCACAGCGCUCGCUUGGACUAAACCAAU (mixed, as 11(1) with dA at 28) [11(11)] | 32
20 | AUUGGGGCCUCCACAGCGCUCGCUUGGACUAAACCAAU (mixed, as 11(1) with dC at 29) [11(12)] | 62.5
21 | AUUGGGGCCUCCACAGCGCUCGCUUGGACUAAACCAAU (mixed, as 11(1) with dT at 30) [11(13)] | 20.3
22 | AUUGGGGCCUCCACAGCGCUCGCUUGGACUAAACCAAU (mixed, as 11(1) with dA at 31) [11(14)] | 45.1
23 | AUUGGGGCCUCCACAGCGCUCGCUUGGACUAAACCAAU (mixed, as 11(1) with dA at 13) [11(15)] | 50.4
24 | AUUGGGGCCUCCACAGCGCUCGCUUGGACUAAACCAAU (ssRNA, as 11(1) with PS between 5 and 6) [11(16)] | 50.9
25 | AUUGGGGCCUCCACAGCGCUCGCUUGGACUAAACCAAU (ssRNA, as 11(1) with PS between 6 and 7) [11(17)] | 70
26 | AUUGGGGCCUCCACAGCGCUCGCUUGGACUAAACCAAU (ssRNA, as 11(1) with PS between 7 and 8) [11(18)] | 60.3
27 | AUUGGGGCCUCCACAGCGCUCGCUUGGACUAAACCAAU (ssRNA, as 11(1) with PS between 8 and 9) [11(19)] | 81.1
28 | AUUGGGGCCUCCACAGCGCUCGCUUGGACUAAACCAAU (ssRNA, as 11(1) with PS between 9 and 10) [11(20)] | 74.7
29 | AUUGGGGCCUCCACAGCGCUCGCUUGGACUAAACCAAU (ssRNA, as 11(1) with PS between 10 and 11) [11(21)] | 80.3
30 | AUUGGGGCCUCCACAGCGCUCGCUUGGACUAAACCAAU (ssRNA, as 11(1) with PS between 14 and 15) [11(25)] | 76.4
31 | AUUGGGGCCUCCACAGCGCUCGCUUGGACUAAACCAAU (ssRNA, as 11(1) with PS between 30 and 31) [11(30)] | 38.3
32 | GCUGGGGCCUCCACAGCGCUCGCUUGGACUAAACCAGC (ssRNA, 2'-OMe at 1-5,15-26,32-38; 2'-F other pyrimidines) [SEQ ID NO: 13] | 58.4
33 | AUUGGGGCCUCCACAGCUUCGGCUUGGACUAAACCAAU (ssRNA, 2'-OMe at 1-5,15-26,32-38; 2'-F other pyrimidines) [SEQ ID NO: 14] | 60.5
34 | AUUGGGGCCUCCACAGCGCUCGCUUGGACUAAACCAAU (ssRNA, as 11(1) with PS between 8-9, 9-10, 10-11, 14-15; 3' idT) [11(32)] | 58.8
35 | AUUGGGGCCUCCACAGCGCUCGCUUGGACUAAACCAAU (ssRNA, as 11(1) with 5' 40 kDa branched PEG and 3' idT) [11(33)] | 55.5

biological target: T1, ADAMTS5; experiment: SPR; RU ratio >=40%; settings: tags: R&D Systems

Row | Binder | binding result
36 | GGGUAUUGGGGCCUCCACAAUAGAUAAAUGGACUAAACCAACUCGA (ssRNA, 2'-F pyrimidines) [SEQ ID NO: 30] | binds
37 | GGGUAUUGGGGCCUCCACAGUUGAAGCUUGGACUAAACCAAUCUCGA (ssRNA, 2'-F pyrimidines) [SEQ ID NO: 31] | binds
38 | GGGUAUUGGGGCCUCCACAGAAAAAUCUUGGACUAAACCAAUCUCGA (ssRNA, 2'-F pyrimidines) [SEQ ID NO: 32] | binds
39 | GGGUAUUGGGGCCUCCACAGCCGAGGCUUGGACUAAACCAAUCUCGA (ssRNA, 2'-F pyrimidines) [SEQ ID NO: 33] | binds
40 | GGGUAUUGGGGCCUCCACAGAAAAAACUUGGACUAAACCAACUCGA (ssRNA, 2'-F pyrimidines) [SEQ ID NO: 34] | binds
41 | GGGUAUUGGGGCCUCCACAGUAAGCACUUGGACUAAACCAGCUCGA (ssRNA, 2'-F pyrimidines) [SEQ ID NO: 35] | binds
42 | GGGUAUUGGGGCCUCCACAGUUUAAACUUGGACUAAACCAACUCGA (ssRNA, 2'-F pyrimidines) [SEQ ID NO: 36] | binds
43 | GGGUAUUGGGGCCUCCACAGUAAAUUCUUGGACUAAACCAACUCGA (ssRNA, 2'-F pyrimidines) [SEQ ID NO: 37] | binds
44 | GGGUAUUGGGGCCUCCACGCUAGAAGGCUGGACUAAACCAACUCGA (ssRNA, 2'-F pyrimidines) [SEQ ID NO: 38] | binds
45 | GGGUAUUGGGGCCUCCACGUAACUAAACUGGACUAAACCAACUCGA (ssRNA, 2'-F pyrimidines) [SEQ ID NO: 39] | binds
